# Data from US20230235013A1 (MABSOLVE, published 2023).
# Target: T1, Histidine-tagged recombinant human FcγRI (CD64) (human, UniProt P12314 16-288)
# T1 construct: bought; also called Sino Biological Cat. No. 12056-H08H
# Test: SPR, culture supernatant, captured His-FcγRI;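 also: biacore T200 SPR at 25 °C, anti-His capture, supernatants of HEK293 cells expressing IgG1 Fc variants injected 1 min, reference-subtracted response read 55 s after injection start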
row,Binder,Mean binding response
1,"anti-CD20 human IgG1 L234A/L235A/G236R (antibody, also called 1-2; 2-2; copies: 2 + 2) heavy: not shown light: QIVLSQSPAILSASPGEKVTMTCRASSSVSYIHWFQQKPGSSPKPWIYATSNLASGVPVRFSGSGSGTSYSLTISRVEAEDAATYYCQQWTSNPPTFGGGTKLEIKRTVAAPSVFIFPPSDEQLKSGTASVVCLLNNFYPREAKVQWKVDNALQSGNSQESVTEQDSKDSTYSLSSTLTLSKADYEKHKVYACEVTHQGLSSPVTKSFNRGEC",30.7 RU
2,"anti-CD20 human IgG1 L234A/L235G/G236R (antibody, also called 1-5; copies: 2 + 2) heavy: not shown light: QIVLSQSPAILSASPGEKVTMTCRASSSVSYIHWFQQKPGSSPKPWIYATSNLASGVPVRFSGSGSGTSYSLTISRVEAEDAATYYCQQWTSNPPTFGGGTKLEIKRTVAAPSVFIFPPSDEQLKSGTASVVCLLNNFYPREAKVQWKVDNALQSGNSQESVTEQDSKDSTYSLSSTLTLSKADYEKHKVYACEVTHQGLSSPVTKSFNRGEC",27.6 RU
3,"anti-CD20 human IgG1 L234A/L235K/G236R (antibody, also called 1-8; copies: 2 + 2) heavy: not shown light: QIVLSQSPAILSASPGEKVTMTCRASSSVSYIHWFQQKPGSSPKPWIYATSNLASGVPVRFSGSGSGTSYSLTISRVEAEDAATYYCQQWTSNPPTFGGGTKLEIKRTVAAPSVFIFPPSDEQLKSGTASVVCLLNNFYPREAKVQWKVDNALQSGNSQESVTEQDSKDSTYSLSSTLTLSKADYEKHKVYACEVTHQGLSSPVTKSFNRGEC",34.2 RU
4,"anti-CD20 human IgG1 L234A/L235I/G236R (antibody, also called 1-7; copies: 2 + 2) heavy: not shown light: QIVLSQSPAILSASPGEKVTMTCRASSSVSYIHWFQQKPGSSPKPWIYATSNLASGVPVRFSGSGSGTSYSLTISRVEAEDAATYYCQQWTSNPPTFGGGTKLEIKRTVAAPSVFIFPPSDEQLKSGTASVVCLLNNFYPREAKVQWKVDNALQSGNSQESVTEQDSKDSTYSLSSTLTLSKADYEKHKVYACEVTHQGLSSPVTKSFNRGEC",28.4 RU
5,"anti-CD20 human IgG1 L234A/L235E/G236R (antibody, also called 1-4; copies: 2 + 2) heavy: not shown light: QIVLSQSPAILSASPGEKVTMTCRASSSVSYIHWFQQKPGSSPKPWIYATSNLASGVPVRFSGSGSGTSYSLTISRVEAEDAATYYCQQWTSNPPTFGGGTKLEIKRTVAAPSVFIFPPSDEQLKSGTASVVCLLNNFYPREAKVQWKVDNALQSGNSQESVTEQDSKDSTYSLSSTLTLSKADYEKHKVYACEVTHQGLSSPVTKSFNRGEC",31.7 RU
6,"anti-CD20 human IgG1 L234A/L235D/G236R (antibody, also called 1-3; copies: 2 + 2) heavy: not shown light: QIVLSQSPAILSASPGEKVTMTCRASSSVSYIHWFQQKPGSSPKPWIYATSNLASGVPVRFSGSGSGTSYSLTISRVEAEDAATYYCQQWTSNPPTFGGGTKLEIKRTVAAPSVFIFPPSDEQLKSGTASVVCLLNNFYPREAKVQWKVDNALQSGNSQESVTEQDSKDSTYSLSSTLTLSKADYEKHKVYACEVTHQGLSSPVTKSFNRGEC",28 RU
7,"anti-CD20 human IgG1 L234A/L235H/G236R (antibody, also called 1-6; copies: 2 + 2) heavy: not shown light: QIVLSQSPAILSASPGEKVTMTCRASSSVSYIHWFQQKPGSSPKPWIYATSNLASGVPVRFSGSGSGTSYSLTISRVEAEDAATYYCQQWTSNPPTFGGGTKLEIKRTVAAPSVFIFPPSDEQLKSGTASVVCLLNNFYPREAKVQWKVDNALQSGNSQESVTEQDSKDSTYSLSSTLTLSKADYEKHKVYACEVTHQGLSSPVTKSFNRGEC",23 RU
8,"anti-CD20 human IgG1 L234A/G236R (antibody, also called 1-9; copies: 2 + 2) heavy: not shown light: QIVLSQSPAILSASPGEKVTMTCRASSSVSYIHWFQQKPGSSPKPWIYATSNLASGVPVRFSGSGSGTSYSLTISRVEAEDAATYYCQQWTSNPPTFGGGTKLEIKRTVAAPSVFIFPPSDEQLKSGTASVVCLLNNFYPREAKVQWKVDNALQSGNSQESVTEQDSKDSTYSLSSTLTLSKADYEKHKVYACEVTHQGLSSPVTKSFNRGEC",8 RU

# More lines, now with the values ahead:
row,Mean binding response,Binder
1,27.4 RU,"anti-CD20 human IgG1 L234A/L235M/G236R (antibody, also called 1-10; copies: 2 + 2) heavy: not shown light: QIVLSQSPAILSASPGEKVTMTCRASSSVSYIHWFQQKPGSSPKPWIYATSNLASGVPVRFSGSGSGTSYSLTISRVEAEDAATYYCQQWTSNPPTFGGGTKLEIKRTVAAPSVFIFPPSDEQLKSGTASVVCLLNNFYPREAKVQWKVDNALQSGNSQESVTEQDSKDSTYSLSSTLTLSKADYEKHKVYACEVTHQGLSSPVTKSFNRGEC"
2,27.3 RU,"anti-CD20 human IgG1 L234D/L235G/G236R (antibody, also called 1-20; copies: 2 + 2) heavy: QVQLQQPGAELVKPGASVKMSCKASGYTFTSYNMHWVKQTPGRGLEWIGAIYPGNGDTSYNQKFKGKATLTADKSSSTAYMQLSSLTSEDSAVYYCARSTYYGGDWYFNVWGAGTTVTVSSASTKGPSVFPLAPSSKSTSGGTAALGCLVKDYFPEPVTVSWNSGALTSGVHTFPAVLQSSGLYSLSSVVTVPSSSLGTQTYICNVNHKPSNTKVDKKVEPKSCDKTHTCPPCPAPEDGRGPSVFLFPPKPKDTLMISRTPEVTCVVVDVSHEDPEVKFNWYVDGVEVHNAKTKPREEQYNSTYRVVSVLTVLHQDWLNGKEYKCKVSNKALPAPIEKTISKAKGQPREPQVYTLPPSRDELTKNQVSLTCLVKGFYPSDIAVEWESNGQPENNYKTTPPVLDSDGSFFLYSKLTVDKSRWQQGNVFSCSVMHEALHNHYTQKSLSLSPGK light: QIVLSQSPAILSASPGEKVTMTCRASSSVSYIHWFQQKPGSSPKPWIYATSNLASGVPVRFSGSGSGTSYSLTISRVEAEDAATYYCQQWTSNPPTFGGGTKLEIKRTVAAPSVFIFPPSDEQLKSGTASVVCLLNNFYPREAKVQWKVDNALQSGNSQESVTEQDSKDSTYSLSSTLTLSKADYEKHKVYACEVTHQGLSSPVTKSFNRGEC"
3,25.8 RU,"anti-CD20 human IgG1 L234A/L235V/G236R (antibody, also called 1-16; copies: 2 + 2) heavy: not shown light: QIVLSQSPAILSASPGEKVTMTCRASSSVSYIHWFQQKPGSSPKPWIYATSNLASGVPVRFSGSGSGTSYSLTISRVEAEDAATYYCQQWTSNPPTFGGGTKLEIKRTVAAPSVFIFPPSDEQLKSGTASVVCLLNNFYPREAKVQWKVDNALQSGNSQESVTEQDSKDSTYSLSSTLTLSKADYEKHKVYACEVTHQGLSSPVTKSFNRGEC"
4,29.6 RU,"anti-CD20 human IgG1 L234D/L235A/G236R (antibody, also called 1-17; copies: 2 + 2) heavy: not shown light: QIVLSQSPAILSASPGEKVTMTCRASSSVSYIHWFQQKPGSSPKPWIYATSNLASGVPVRFSGSGSGTSYSLTISRVEAEDAATYYCQQWTSNPPTFGGGTKLEIKRTVAAPSVFIFPPSDEQLKSGTASVVCLLNNFYPREAKVQWKVDNALQSGNSQESVTEQDSKDSTYSLSSTLTLSKADYEKHKVYACEVTHQGLSSPVTKSFNRGEC"
5,11.9 RU,"anti-CD20 human IgG1 L234D/G236R (antibody, also called 1-24; 2-8; copies: 2 + 2) heavy: not shown light: QIVLSQSPAILSASPGEKVTMTCRASSSVSYIHWFQQKPGSSPKPWIYATSNLASGVPVRFSGSGSGTSYSLTISRVEAEDAATYYCQQWTSNPPTFGGGTKLEIKRTVAAPSVFIFPPSDEQLKSGTASVVCLLNNFYPREAKVQWKVDNALQSGNSQESVTEQDSKDSTYSLSSTLTLSKADYEKHKVYACEVTHQGLSSPVTKSFNRGEC"
6,22 RU,"anti-CD20 human IgG1 L234D/L235D/G236R (antibody, also called 1-18; copies: 2 + 2) heavy: QVQLQQPGAELVKPGASVKMSCKASGYTFTSYNMHWVKQTPGRGLEWIGAIYPGNGDTSYNQKFKGKATLTADKSSSTAYMQLSSLTSEDSAVYYCARSTYYGGDWYFNVWGAGTTVTVSSASTKGPSVFPLAPSSKSTSGGTAALGCLVKDYFPEPVTVSWNSGALTSGVHTFPAVLQSSGLYSLSSVVTVPSSSLGTQTYICNVNHKPSNTKVDKKVEPKSCDKTHTCPPCPAPEDDRGPSVFLFPPKPKDTLMISRTPEVTCVVVDVSHEDPEVKFNWYVDGVEVHNAKTKPREEQYNSTYRVVSVLTVLHQDWLNGKEYKCKVSNKALPAPIEKTISKAKGQPREPQVYTLPPSRDELTKNQVSLTCLVKGFYPSDIAVEWESNGQPENNYKTTPPVLDSDGSFFLYSKLTVDKSRWQQGNVFSCSVMHEALHNHYTQKSLSLSPGK light: QIVLSQSPAILSASPGEKVTMTCRASSSVSYIHWFQQKPGSSPKPWIYATSNLASGVPVRFSGSGSGTSYSLTISRVEAEDAATYYCQQWTSNPPTFGGGTKLEIKRTVAAPSVFIFPPSDEQLKSGTASVVCLLNNFYPREAKVQWKVDNALQSGNSQESVTEQDSKDSTYSLSSTLTLSKADYEKHKVYACEVTHQGLSSPVTKSFNRGEC"
7,34.3 RU,"anti-CD20 human IgG1 L234A/L235Q/G236R (antibody, also called 1-12; copies: 2 + 2) heavy: not shown light: QIVLSQSPAILSASPGEKVTMTCRASSSVSYIHWFQQKPGSSPKPWIYATSNLASGVPVRFSGSGSGTSYSLTISRVEAEDAATYYCQQWTSNPPTFGGGTKLEIKRTVAAPSVFIFPPSDEQLKSGTASVVCLLNNFYPREAKVQWKVDNALQSGNSQESVTEQDSKDSTYSLSSTLTLSKADYEKHKVYACEVTHQGLSSPVTKSFNRGEC"
8,22.1 RU,"anti-CD20 human IgG1 L234D/L235E/G236R (antibody, also called 1-19; copies: 2 + 2) heavy: QVQLQQPGAELVKPGASVKMSCKASGYTFTSYNMHWVKQTPGRGLEWIGAIYPGNGDTSYNQKFKGKATLTADKSSSTAYMQLSSLTSEDSAVYYCARSTYYGGDWYFNVWGAGTTVTVSSASTKGPSVFPLAPSSKSTSGGTAALGCLVKDYFPEPVTVSWNSGALTSGVHTFPAVLQSSGLYSLSSVVTVPSSSLGTQTYICNVNHKPSNTKVDKKVEPKSCDKTHTCPPCPAPEDERGPSVFLFPPKPKDTLMISRTPEVTCVVVDVSHEDPEVKFNWYVDGVEVHNAKTKPREEQYNSTYRVVSVLTVLHQDWLNGKEYKCKVSNKALPAPIEKTISKAKGQPREPQVYTLPPSRDELTKNQVSLTCLVKGFYPSDIAVEWESNGQPENNYKTTPPVLDSDGSFFLYSKLTVDKSRWQQGNVFSCSVMHEALHNHYTQKSLSLSPGK light: QIVLSQSPAILSASPGEKVTMTCRASSSVSYIHWFQQKPGSSPKPWIYATSNLASGVPVRFSGSGSGTSYSLTISRVEAEDAATYYCQQWTSNPPTFGGGTKLEIKRTVAAPSVFIFPPSDEQLKSGTASVVCLLNNFYPREAKVQWKVDNALQSGNSQESVTEQDSKDSTYSLSSTLTLSKADYEKHKVYACEVTHQGLSSPVTKSFNRGEC"
9,26.9 RU,"anti-CD20 human IgG1 L234A/L235R/G236R (antibody, also called 1-13; copies: 2 + 2) heavy: not shown light: QIVLSQSPAILSASPGEKVTMTCRASSSVSYIHWFQQKPGSSPKPWIYATSNLASGVPVRFSGSGSGTSYSLTISRVEAEDAATYYCQQWTSNPPTFGGGTKLEIKRTVAAPSVFIFPPSDEQLKSGTASVVCLLNNFYPREAKVQWKVDNALQSGNSQESVTEQDSKDSTYSLSSTLTLSKADYEKHKVYACEVTHQGLSSPVTKSFNRGEC"
